Reference: PMC8998743, “Dimerization Activity of a Disordered N-Terminal Domain from Drosophila CLAMP Protein” (International Journal of Molecular Sciences, 2022)

Experiments:
[1] = biological target: the molecule itself; test: cross-linking; thioredoxin-tagged proteins at 5 μM, increasing concentrations of glutaraldehyde, 10 min at room temperature, 20 mM HEPES pH 7.7, 150 mM NaCl, 20 mM imidazole, 1 mM β-mercaptoethanol; SDS-PAGE, silver staining
[2] = biological target: the molecule itself; test: SEC; Superdex S200 size-exclusion chromatography of purified CLAMP derivatives
[3] = biological target: the molecule itself; test: SAXS; in solution, BM29 BioSAXS beamline (ESRF); molecular weight from extrapolated I0; CLAMP 1-153 at 2.3 mg/mL, CLAMP 1-113 at 1.0 and 7.0 mg/mL, CLAMP 87-153 at 2.5 and 10.0 mg/mL

B1: thioredoxin-tagged CLAMP^1–127 (domain or fragment, D. melanogaster, UniProt Q9V9N4 1-127, looked up)
chain: MEDLTKNIIFTNAINGQPATIQYQTADGTILKQPKIEGQKTEQQPTFYYTTNGNGGTVNLAQLATTDDNKTCYIAQPVGGYNYALVNGMPLNQGAALGIATVDAQGRIQIVNQNKPIAANTISNISF
notes: Used in glutaraldehyde cross-linking with the thioredoxin tag on; source: E. coli BL21(DE3), purified
B1: binds [1].

B2: CLAMP^1–127 (purified, tag cleaved) (domain or fragment, D. melanogaster, UniProt Q9V9N4 1-127, looked up)
chain: B1 chain
notes: source: E. coli BL21(DE3), purified (Ni-NTA, TEV cleavage, SOURCE15Q)
B2: binds [2].

B3: CLAMP^1–153 (purified, tag cleaved) (domain or fragment, D. melanogaster, UniProt Q9V9N4 1-153, looked up)
chain: MEDLTKNIIFTNAINGQPATIQYQTADGTILKQPKIEGQKTEQQPTFYYTTNGNGGTVNLAQLATTDDNKTCYIAQPVGGYNYALVNGMPLNQGAALGIATVDAQGRIQIVNQNKPIAANTISNISFKCDVCSDMFPHLALLNAHKRMHTDGE
notes: as for B2
With B3 the “stoichiometry N” value [3] was 2.

B4: CLAMP^1–113 (purified, tag cleaved) (domain or fragment, D. melanogaster, UniProt Q9V9N4 1-113, looked up)
chain: MEDLTKNIIFTNAINGQPATIQYQTADGTILKQPKIEGQKTEQQPTFYYTTNGNGGTVNLAQLATTDDNKTCYIAQPVGGYNYALVNGMPLNQGAALGIATVDAQGRIQIVNQ
notes: as for B2
With B4 the “stoichiometry N” value [3] was 2.
